We go through seven substances from paper PMC5702669.

Assay [1] has as its target full-length PfMyoA heavy chain with C-terminal biotin tag and FLAG tag (P. falciparum) (UniProt Q8IDR3).
A further assay deals with skeletal muscle actin (UniProt P68135).

With “PF3D7_0627200, putative myosin light chain (PFF1320c) (from UniProt C6KTA8 1-139) (natural protein)”, in assay [1], the in vitro motility speed of PfMyoA-MTIP with PF3D7 0627200 added, no calcium is 1.1 μm/s and the in vitro motility speed of PfMyoA-MTIP with PF3D7 0627200 added, with calcium was 0.6 μm/s.

Turning to “PfMD T417D (phosphomimic at the TEDS site) (from UniProt Q8IDR3 1-768) (domain or fragment)”, the Km (actin concentration at half-maximal activity) of the actin-activated ATPase, 30 °C, 5 mM NaCl with skeletal muscle actin stood at 4.4 µM.

“P. falciparum essential light chain (PfELC), untagged (from UniProt Q8IJM4 1-134) (natural protein)”: in assay [1], the in vitro motility speed of PfMyoA-MTIP with PfELC, no calcium was found to be 3.8 μm/s and the in vitro motility speed of PfMyoA-MTIP with PfELC, with calcium (100 μM) was 3.8 μm/s.

On to “PF3D7_0107000, putative centrin-1 (PfPC1), N-terminal His6 tag (natural protein)”, for which the in vitro motility speed of PfMyoA-MTIP with PF3D7 0107000 added, no calcium in assay [1] stood at 1.5 μm/s.

Consider “T. gondii essential light chain TgELC1 (from UniProt A0A125YUL9 1-87) (natural protein)”, for which, in assay [1], the in vitro motility speed of PfMyoA-MTIP with TgELC1, no calcium turned out to be 3.3 μm/s.

For the substance “PfMD T417A (phospho-null at the TEDS site) (from UniProt Q8IDR3 1-768) (domain or fragment)”, in the assay with skeletal muscle actin, the Km (actin concentration at half-maximal activity) of the actin-activated ATPase, 30 °C, 5 mM NaCl was determined as 9.8 µM.

Turning to “PfMD, PfMyoA motor domain (Met-1–Lys-768) with C-terminal FLAG tag (from UniProt Q8IDR3 1-768) (domain or fragment)”, in the assay with skeletal muscle actin, the Km (actin concentration at half-maximal activity) of the actin-activated ATPase, 30 °C, 5 mM NaCl is 13 µM.
